Data from patent US20240295570A1, “METHOD FOR IDENTIFYING CANDIDATE THERAPEUTICS FOR ALZHEIMER'S DISEASE” (UNIVERSITY OF SOUTH FLORIDA, priority 2023, published 2024).

Columns and labels:
BIN1 SH3 domain = molecular target: T1, BIN1 SH3 domain (Homo sapiens, UniProt O00499); assay: Surface plasmon resonance (SPR) binding to immobilised BIN1 SH3 domain; settings: triplicate, ligand BIN1 SH3 domain 50 μg/mL, analyte serial dilution 75-0.6 μM, dissociation time 120 seconds, 25° C., running buffer 1×PBS-P+, read-out: dissociation constant (KD)
T1 construct: 6x His with TEV cleavage site (N, cleaved yes); made in house; host or cells: E. coli BL21 (DE3), pET28a(+)
T1 sequence (O00499 513-593): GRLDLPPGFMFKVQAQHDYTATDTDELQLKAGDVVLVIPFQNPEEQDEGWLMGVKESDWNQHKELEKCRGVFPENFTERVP
Experimental: (§1) Next, the inventors determined the dissociation constant (KD) for the peptide and full-length 0N4R WT Tau by surface plasmon resonance (SPR). The experiment was run in triplicate with BIN1 SH3 domain 50 μg/mL as the ligand, and FL 0N4R WT Tau in serial dilution from 75-0.6 μM as the analyte. Flow rate—30 μL/minute, contact time—30 seconds, dissociation time—120 seconds, temperature—25° C., running buffer—1×PBS-P+. A dissociation constant of 1.136 μM was determined.
Then, the dissociation constants for nine compounds identified through the molecular docking analysis were assessed. […] Therefore, compound #5 is a candidate compound for further testing in Alzheimer's disease. Ligand-BIN1 SH3 domain 50 μg/mL. Analyte—compounds 1-2 (serial dilutions from 500-3.12 μM), #4 & 6-9 (250-3.12 μM) and #5 (dilutions from 100-3.12 μM). Flow rate—30 μL/minute, contact time—30 seconds, dissociation time—300 seconds, temperature—25° C., running buffer—1.05×PBS-P+ with 5% DMSO. Solvent correction for 5% DMSO was calculated and mathematically subtracted from each compound analysis.

full-length 0N4R WT Tau [1] = molecular target: T2, full-length 0N4R WT Tau (UniProt P10636-6 2-383, limits assumed); assay: SPR, run in triplicate; BIN1 SH3 domain (50 µg/mL) as immobilised ligand, FL 0N4R WT Tau in serial dilution from 75-0.6 µM as analyte; 25° C., 1×PBS-P+
T2 construct: mature; also called FL 0N4R WT Tau
T2 sequence (P10636 other isoform, or with tags, fused parts or gaps limits assumed): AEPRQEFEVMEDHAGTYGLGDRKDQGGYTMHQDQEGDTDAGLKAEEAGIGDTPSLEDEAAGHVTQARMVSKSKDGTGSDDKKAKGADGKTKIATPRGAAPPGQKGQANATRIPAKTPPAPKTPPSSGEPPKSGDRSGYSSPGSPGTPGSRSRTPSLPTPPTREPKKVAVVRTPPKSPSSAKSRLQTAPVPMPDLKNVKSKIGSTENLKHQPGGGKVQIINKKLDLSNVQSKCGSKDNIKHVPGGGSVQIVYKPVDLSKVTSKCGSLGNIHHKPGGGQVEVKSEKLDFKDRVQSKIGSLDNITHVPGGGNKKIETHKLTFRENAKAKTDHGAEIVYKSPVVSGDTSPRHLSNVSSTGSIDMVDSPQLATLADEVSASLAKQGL
Experimental: as §1, with “buffer—1×PBS-P+.” for “buffer—1×PBS-P+. A dissociation constant of 1.136 μM was determined.”

full-length 0N4R WT Tau [2] = molecular target: T2, full-length 0N4R WT Tau; assay: SPR, steady-state affinity fit (replicate 2 of 3); BIN1 SH3 domain as immobilised ligand, FL 0N4R WT Tau as analyte 0.6-75 µM, 25 °C, PBS-P+
Experimental: as §1, with “buffer—1×PBS-P+.” for “buffer—1×PBS-P+. A dissociation constant of 1.136 μM was determined.”

full-length 0N4R WT Tau [3] = molecular target: T2, full-length 0N4R WT Tau; assay: SPR, steady-state affinity fit (replicate 1 of 3); BIN1 SH3 domain as immobilised ligand, FL 0N4R WT Tau as analyte 0.6-75 µM, 25 °C, PBS-P+
Experimental: as §1, with “buffer—1×PBS-P+.” for “buffer—1×PBS-P+. A dissociation constant of 1.136 μM was determined.”

full-length 0N4R WT Tau [4] = molecular target: T2, full-length 0N4R WT Tau; assay: SPR, steady-state affinity fit (replicate 3 of 3); BIN1 SH3 domain as immobilised ligand, FL 0N4R WT Tau as analyte 0.6-75 µM, 25 °C, PBS-P+
Experimental: as §1, with “buffer—1×PBS-P+.” for “buffer—1×PBS-P+. A dissociation constant of 1.136 μM was determined.”

Molecule	Kd (BIN1 SH3 domain)	Kd (full-length 0N4R WT Tau [1])	Kd (full-length 0N4R WT Tau [2])	Kd (full-length 0N4R WT Tau [3])	Kd (full-length 0N4R WT Tau [4])
FL 0N4R WT Tau: full-length 0N4R wild-type Tau protein used as analyte in SPR	1140 nM				
human BIN1 SH3 domain (untagged) (other, also called native BIN1 SH3 domain; the peptide) GRLDLPPGFMFKVQAQHDYTATDTDELQLKAGDVVLVIPFQNPEEQDEGWLMGVKESDWNQHKELEKCRGVFPENFTERVP		1140 nM	1300 nM	1030 nM	1080 nM
